Entries after “also recorded” stand apart in the source; their conditions may differ.
B1: CCL19: chemokine CCL19 (R&D Systems) used as chemoattractant for T cells (protein, UniProt Q99731 22-98, looked up)
C-C motif chemokine 19: GTNDAEDCCLSVTQKPIPGYIVRNFHYLLIKDGCRVPAVVFTTLRGRQLCAPPDQPWVERIIQRLQRTSAKMKRRSS

Tests used:
[1] = test system: Acute promyelocytic leukemia cells; details: differentiation down the neutrophil lineage for three days; cited from earlier work
naïve WAS−/− T cells = experiment: In vitro Transwell cell migration toward CCL19; assay type: cell-based, mouse
Description: (§1) Cells from the peripheral lymph nodes and the spleen of Balb/c mice and WAS−/− mice on Balb/c background were pooled and enriched using the EasySep Mouse CD8+ T Cell Enrichment Kit from STEMCELL Technologies (British Columbia, Canada). Enrichment was confirmed using fluorescence-activated cell sorting (FACS) by staining the cells with FITC/anti-Thy1.2 and PE/anti-CD8α antibodies (Abs). The memory T cell population was assessed by evaluating the expression of CD44 and CD62L via FACS. T cells in an activation medium with 100 units/mL IL-2 and 1% anti-CD28 Ab were activated by plate-bound anti-CD3 Abs for 4 day at 37° C. The activation medium included RPMI with 10% FBS, 10 mM HEPES (1M), 1% NEAA, 1% sodium pyruvate (100 mM), 50 μM β-mercaptoethanol, 4 mM L-glutamine, and 100 μg/mL Pen/Strep. Cell activation was verified via FACS measurement of CD25. Enriched WT and WAS−/− T cells in DMEM with 1% BSA and 0.1% Pen/Strep were induced to migrate through polycarbonate Transwell inserts (Costar, Cambridge, Mass.) with 5-μm pores in a 24-well plate toward a CCL19 chemokine source (R&D Systems, Minneapolis, Minn.). Inserts contained 5×10^5 cells in 100 μL of medium, and wells contained 1 mL of medium with either no CCL19 or 100 ng/mL of CCL19. Cells were allowed to migrate for ˜7 hours at 37° C., and those that crossed the membrane were collected and used for MPA studies.

naïve WT T cells = experiment: In vitro Transwell cell migration toward CCL19; assay type: cell-based, mouse; details: after CCL19 exposure
Description: as §1

WAS−/− T cells = experiment: Micropipette aspiration of chemokine-stimulated T cells; assay type: cell-based, mouse; details: naïve WAS−/− T cells
Description: (§2) Micropipettes made using a micropipette puller were trimmed to 2.5-3 or 4.5-5 μm inner diameter for testing naïve and activated T cells. MPA glass chambers consisted of a 24 mm×60 mm microscope coverslip bottom, a U-shaped parafilm spacer, and a 22 mm×22 mm microscope coverslip top. The assembly was baked for two hours at 80° C. to ensure good adhesion between the components.
(§3) Enriched WT and WAS−/− T cells in DMEM with 1% BSA and 0.1% Pen/Strep were induced to migrate through polycarbonate Transwell inserts (Costar, Cambridge, Mass.) with 5-μm pores in a 24-well plate toward a CCL19 chemokine source (R&D Systems, Minneapolis, Minn.). Inserts contained 5×10^5 cells in 100 μL of medium, and wells contained 1 mL of medium with either no CCL19 or 100 ng/mL of CCL19. Cells were allowed to migrate for ˜7 hours at 37° C., and those that crossed the membrane were collected and used for MPA studies.
(§4) 3×10^5 cells in 100 μL RPMI with 10% FBS and 1% HEPES was stained with 10 μL trypan blue. The mixture was added to 600 μL of either the RPMI medium or the T cell activation medium with IL-2 for naïve and activated T cell testing. Migratory T cells were tested in the medium used for migration. The MPA device was based on the design of Hochmuth et al (18). The aspiration rate and volume were 36 mL/hr and 2 mL, corresponding to a total pressure of ˜400 Pa. The cell movement in the micropipette was recorded with a CCD camera. Aspirations were performed at approximately room temperature.
(§5) MPA data were fitting using the half-space model (77) described by the expressions:
(§6) where E is the cell modulus, L is the length from the micropipette opening to the cell leading edge, Δp is the pressure differential at a particular L, ri and ro are the inner and outer […] of the micropipette, and φ is the wall function that is approximately […]. The ImageJ software was used to manually track the change in L. By plotting Δp against ri/L and finding the best linear fit (minimal total error) a modulus could be derived from the slope of the line. […]

WT T cells = experiment: as above; assay type: cell-based, mouse
Description: as §2, §3, §4, §5, §6

| Molecule | compliance of differentiated cells relative to control (more compliant) [1] | cells with naïve phenotype (CD62L and CD44 co-staining), FACS (naïve WAS−/− T cells; all three groups (untreated, remained in insert, migrated)) | cells migrated (naïve WAS−/− T cells; seven hours exposure to CCL19, 100 ng/mL, 5-μm pore inserts) | migrating cells stained CD62L high and CD44 low (naïve phenotype), FACS (naïve WT T cells) | change in modulus before and after the chemokine treatment (Student's t test) (WAS−/− T cells) | stiffness compared to activated cells (WT T cells; migratory WT cells after CCL19) | change in modulus before and after the chemokine treatment (Student's t test) (WT T cells; naïve WT T cells) |
| --- | --- | --- | --- | --- | --- | --- | --- |
| CC1=C(/C=C/C(C)=C/C=C/C(C)=C/C(=O)O)C(C)(C)CCC1 [all-trans retinoic acid] | 45% | – | – | – | – | – | – |
| B1 | – | ~90% | ~6.4% | ~90% | did not pass the 95% significance level; also recorded: insignificant decrease | about 1.4 times | significantly different |
